We go through 1 molecule from patent US20030131383A1 (INTERLINK BIOTECHNOLOGIES, published 2003).

No end group written: not given here.

Holding throughout (assay): cell-based or functional assay
One experiment has as its target Carboxypeptidase.
The target in a further experiment is T1, Papain (UniProt P00784 134-345).
T1 sequence (looked up): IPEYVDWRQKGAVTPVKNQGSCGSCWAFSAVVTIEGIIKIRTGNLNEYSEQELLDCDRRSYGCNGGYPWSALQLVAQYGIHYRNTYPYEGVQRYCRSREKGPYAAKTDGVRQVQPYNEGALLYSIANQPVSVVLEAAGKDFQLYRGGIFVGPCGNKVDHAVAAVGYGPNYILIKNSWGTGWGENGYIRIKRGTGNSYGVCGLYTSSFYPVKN

The target of the next experiment is Chymotrypsin.

With RRWPWWPWKWPLI-NH2 [Rev4 (reverse indolicidin), C-terminal amide form], in the experiment with Carboxypeptidase, the “% Inhibition of Proteolysis by Rev4 at 2.5 µg/ml” value (“% Inhibition … at 2.5 µg/ml” for short) was 58%, the “% Inhibition of Proteolysis by Rev4 at 5 µg/ml” value (from here on “% Inhibition … at 5 µg/ml”) was determined as 92%, the “% Inhibition of Proteolysis by Rev4 at 10 µg/ml” value (“% Inhibition … at 10 µg/ml” below) turned out to be 100% and the “% Inhibition of Proteolysis by Rev4 at 20 µg/ml” value (“% Inhibition … at 20 µg/ml” below) worked out at 100%. Besides, in the experiment with Papain, the “% Inhibition … at 2.5 µg/ml” value was 29%, the “% Inhibition … at 5 µg/ml” value amounted to 72%, the “% Inhibition … at 10 µg/ml” value turned out to be 93% and the “% Inhibition … at 20 µg/ml” value was 99%. For the same molecule, in the experiment with Chymotrypsin, the “% Inhibition … at 2.5 µg/ml” value was found to be 16%, the “% Inhibition … at 5 µg/ml” value came out at 42%, the “% Inhibition … at 10 µg/ml” value was 75% and the “% Inhibition … at 20 µg/ml” value is 97%.
